Test results from publication PMC9696088, “Alicyclobacillus mali FL18 as a Novel Source of Glycosyl Hydrolases: Characterization of a New Thermophilic β-Xylosidase Tolerant to Monosaccharides” (International Journal of Molecular Sciences, 2022).

Experiments:
[1] = molecular target: AmβXyl, β-xylosidase (GH3) from Alicyclobacillus mali FL18 (Alicyclobacillus mali FL18); experiment: SEC-MALS; size-exclusion chromatography (S200 16/60) with triple-angle light scattering and QELS; 500 μg loaded; 100 mM NaCl, 25 mM sodium phosphate pH 7.5, 1 mM DTT; 0.5 mL/min
[2] = substrate: O=[N+]([O-])c1ccc(O[C@@H]2O[C@@H](CO)[C@H](O)[C@H]2O)cc1; experiment: pNP release, A405 nm, Michaelis-Menten fit (GraphPad Prism); type: biochemical, Alicyclobacillus mali (ex Roth et al. 2021); conditions: 50 mM sodium citrate pH 5.6, 1 mM DTT, 80 °C, substrate 0.1-8.0 mM
Excerpt: (§1) pNP release, A405 nm, Michaelis-Menten fit (GraphPad Prism) on AmβXyl

[3] = substrate: O=[N+]([O-])c1ccc(O[C@@H]2OC[C@@H](O)[C@H](O)[C@H]2O)cc1; experiment: as above; type: biochemical, Alicyclobacillus mali (ex Roth et al. 2021); conditions: 50 mM sodium citrate pH 5.6, 1 mM DTT, 80 °C, substrate 0.1-8.0 mM
Excerpt: as §1

Molecule | stoichiometry N [1] | Km [2] | kcat [2] | kcat/Km [2] | Km [3] | kcat [3] | kcat/Km [3]
AmβXyl, β-xylosidase (GH3) from Alicyclobacillus mali FL18 (enzyme) | 2 |  |  |  |  |  | 
AmβXyl (Alicyclobacillus mali (ex Roth et al. 2021)) (protein, synthetic codon-optimised gene in pET-30a(+) NcoI/HindIII, N-terminal His-tag; E. coli BL21 (DE3) RIL; ~89 kDa on SDS-PAGE, dimer ~177 kDa) MYLDPAQSVDARVDALLADMTLEEKVAQLTSIWAFEILDDLRFSAEKAAAVLGQGIGQVTRIGGATNLDPPDVARLANQIQRYLRDHTRLGIPALIHEESCSGYMAKGATCFPQTIGIASTWDVDLAQRIGAIIRDQMRAVGARQALAPLLDVARDPRWGRVEETFGEDPYLVAQMGIAYVRGLQGEDLSQGVMATGKHFVGYGASEGGMNWAPAHIPERELREVYLFPFEAAVREAGLGAIMPGYHELDGVPCHDNPGLLRETLRGRWGFQGLVVSDYFAVNQLFEYHQVARDKAEAAALAVRAGVDVELPTRDVYGKPLIEAVARGLVSVAEIDELVRRVLTWKFRLGLFDHPFVDEGAAIAVFDNAEQRKVAREAAEKSLVLLKNDGLLPLAPRGTIAVIGPNAHTTRNLVGDYAYPCHIESLLEQSEDNVFQTPLPSGVKHVDEFIPMRTILEAIGHRVGSEAQVVYAKGCDVLEGEDADLDEAVALAAQSDVAVVVVGDRAGLTDACTTGESRDRATLSLIGRQEELVRRVLATGTKTVVVLVSGRPLAIPDIAERANAVLEAWLPGEEGAEAVAAVLFGDVNPSGKLPVTIPRSVGQVPIYYGHKPSGGRSHWKGAYVDESNLPLYPFGHGLSYTAFEYRDLTLSASELGVHGEIEVACVIENVGARAGEEVVQLYARDVAADVTRPVKVLCGFARVPLAPGEKARVRFRVSAHQFGFYNREMRYVVEPGEIEIMVGASSEDIRLRGMVRIHGAMTEIEHEKVYQSAVNVERM |  | 10.56 mM | 2400 s⁻¹ | 227000 M⁻¹ s⁻¹ | 0.52 mM | 1610 s⁻¹ | 3.09e+06 M⁻¹ s⁻¹
